The text below walks through data of paper PMC9470164, “Membrane-mediated dimerization potentiates PIP5K lipid kinase activity” (eLife, 2022).

In data set [1] the target is human PIP5KB (D51R), purified, unlabelled (human).
The target of data set [2] is mNG-PIP5KB, recombinantly expressed and purified (human) (UniProt O14986).
Data set [3] shares this target. Description: single-molecule TIRF molecular brightness, photobleaching and tracking on supported lipid bilayers; purified mNG kinases at 100 pM; equilibrium membrane binding at ~600 kinases per field of view (0.2 kinases/µm^2); particles with intensity ≥8200 A.U. counted as dimers; membrane 96% DOPC, 4% PI(4,5)P2.
The target in data set [4] is mouse PIP5KA (D92R), purified (mouse).
Data set [5] addresses mouse PIP5KA, purified (mouse).
Data set [6] deals with the molecule itself. Description: single-molecule TIRF molecular brightness and photobleaching on supported lipid bilayers; mNG-tagged kinase in HEK293 cell lysate diluted ~10,000-fold to ~10 pM (legend: 1 pM mNG-PIP4KB, 5 pM mNG-PIP5K); low surface density ~0.03 molecules/µm^2; membrane 96% DOPC, 4% PI(4,5)P2; 23°C.
Data set [7] concerns the molecule itself. Description: single-molecule TIRF molecular brightness on supported lipid bilayers; purified kinases labelled with Alexa488 by Sortase-mediated peptide ligation; membrane 96% DOPC, 4% PI(4,5)P2.

“human PIP5KB (D51R), purified, unlabelled (enzyme)” had a lipid kinase activity on supported lipid bilayers, reduction against wild-type PIP5KB in data set [1] of 7 fold.
Regarding “mNG-PIP5KB, recombinantly expressed and purified (from UniProt O14986 1-540) (enzyme)”, the effective phosphorylation rate constant per membrane-bound kinase (after the transition from slow to fast kinetics) (lipids/µm^2•s per kinase) in data set [2] turned out to be 0.0027. Moreover, in data set [3], the fold frequency of dimers against mNG-PIP5KB (D51R) is 5 fold; the stoichiometry N (as a rule, a count of units in the complex or per binding partner) was found to be 2; the time that dimers persist before photobleaching or dissociating lay within 1 to 2 s.
In data set [4], mouse PIP5KA (D92R), purified (enzyme) gave a reaction half-time of PI(4,5)P2 production at 5, 2.5 and 1 nM kinase (71 s, 139 s, 270 s) of 270 s.
On to mouse PIP5KA, purified (enzyme), for which the reaction half-time of PI(4,5)P2 production at 5, 2.5 and 1 nM kinase (28 s, 49 s, 90 s) in data set [5] worked out at 90 s.

B1: mNeonGreen-tagged human phosphatidylinositol 5-phosphate 4-kinase type-2 beta (mNG-PIP4KB) (enzyme, UniProt P78356 1-416, looked up)
chain: MSSNCTSTTAVAVAPLSASKTKTKKKHFVCQKVKLFRASEPILSVLMWGVNHTINELSNVPVPVMLMPDDFKAYSKIKVDNHLFNKENLPSRFKFKEYCPMVFRNLRERFGIDDQDYQNSVTRSAPINSDSQGRCGTRFLTTYDRRFVIKTVSSEDVAEMHNILKKYHQFIVECHGNTLLPQFLGMYRLTVDGVETYMVVTRNVFSHRLTVHRKYDLKGSTVAREASDKEKAKDLPTFKDNDFLNEGQKLHVGEESKKNFLEKLKRDVEFLAQLKIMDYSLLVGIHDVDRAEQEEMEVEERAEDEECENDGVGGNLLCSYGTPPDSPGNLLSFPRFFGPGEFDPSVDVYAMKSHESSPKKEVYFMAIIDILTPYDTKKKAAHAAKTVKHGAGAEISTVNPEQYSKRFNEFMSNILT
notes: human phosphatidylinositol 5-phosphate 4-kinase type-2 beta (PIP4KB, PIP4K2B); Lentiviral vector with SFFV promoter; also called hPIP4K2B; source: HEK293T, transiently transfected, in clarified cell lysate (diluted); not shown: mNeonGreen, N-terminal, kept
As for B1, the “stoichiometry N” value in data set [6] came to 2.

B2: Alexa488-labelled human PIP4KB (Ax488-PIP4KB), purified (enzyme)
chain: GGGGGMSSNCTSTTAVAVAPLSASKTKTKKKHFVCQKVKLFRASEPILSVLMWGVNHTINELSNVPVPVMLMPDDFKAYSKIKVDNHLFNKENLPSRFKFKEYCPMVFRNLRERFGIDDQDYQNSVTRSAPINSDSQGRCGTRFLTTYDRRFVIKTVSSEDVAEMHNILKKYHQFIVECHGNTLLPQFLGMYRLTVDGVETYMVVTRNVFSHRLTVHRKYDLKGSTVAREASDKEKAKDLPTFKDNDFLNEGQKLHVGEESKKNFLEKLKRDVEFLAQLKIMDYSLLVGIHDVDRAEQEEMEVEERAEDEECENDGVGGNLLCSYGTPPDSPGNLLSFPRFFGPGEFDPSVDVYAMKSHESSPKKEVYFMAIIDILTPYDTKKKAAHAAKTVKHGAGAEISTVNPEQYSKRFNEFMSNILT
modifications: Alexa488 on the N-terminal amine of the ligated LPETGG peptide
notes: glycine stretch of his6-SUMO3-GGGGG-PIP4K2B left after SenP2 cleavage; human PIP4K2B isoform 2, 1-416aa; Surmise: Sortase ligation leaves Alexa488-LPET joined to GGGGG-PIP4K2B; also called Alexa488-PIP4K; PIP4K2B; source: E. coli BL21(DE3) Star, purified (Co2+ HiTrap Chelating, Superdex 200), labelled by Sortase-mediated peptide ligation; not shown: His6, N-terminal, cleaved; SUMO3, N-terminal, …
Regarding B2, the binding result in data set [7] was “binds”.
